Test results: patent US20160250307A1 (IMMATICS BIOTECHNOLOGIES, published 2016)

Biological target: HLA-A*02 (human)
Assay: UV-ligand exchange, anti-b2m ELISA; grade: exchange yield >=20%

Q: For YLGEEYVKA, which peptide exchange yield is on record?
A: 20 to 50%

Q: Which peptide exchange yield does the source give for SLVGDIGNVNM here?
A: 20 to 50%

Q: Which peptide exchange yield does the source give for FLWTEQAHTV here?
A: 20 to 50%

Q: With YLSQAADGAKVL as the binder, how does the peptide exchange yield read?
A: 20 to 50%

Q: Which peptide exchange yield does the source give for FLIAEYFEHV here?
A: 20 to 50%

Q: Which peptide exchange yield does the source give for KQMEPLHAV here?
A: 20 to 50%

Q: With RLYTMDGITV as the binder, how does the peptide exchange yield read?
A: 20 to 50%

Q: For RLIDRIKTV, which peptide exchange yield is on record?
A: 20 to 50%

Q: RLIEEIKNV was tested. Which peptide exchange yield did it give?
A: 20 to 50%

Biological target: HLA-A*02 (human)
Assay: UV-ligand exchange, anti-b2m ELISA; grade: exchange yield >=75%

Q: RIAGIRGIQGV was tested. Which peptide exchange yield did it give?
A: ≥ 75%

Q: For TLPDFRLPEI, which peptide exchange yield is on record?
A: ≥ 75%

Q: With KVLDKVFRA as the binder, how does the peptide exchange yield read?
A: ≥ 75%

Q: YIHNILYEV was tested. Which peptide exchange yield did it give?
A: ≥ 75%

Q: Which peptide exchange yield does the source give for GLLSGLDIMEV here?
A: ≥ 75%

Q: Which peptide exchange yield does the source give for KLLDNWDSV here?
A: ≥ 75%

Q: How did the peptide exchange yield turn out when RLFNDPVAMV was run?
A: ≥ 75%

Q: With KIAELLENV as the binder, how does the peptide exchange yield read?
A: ≥ 75%

Q: YLEPYLKEV was tested. Which peptide exchange yield did it give?
A: ≥ 75%

Q: With QLIEVSSPITL as the binder, how does the peptide exchange yield read?
A: ≥ 75%

Q: Which peptide exchange yield does the source give for AVIGGLIYV here?
A: ≥ 75%

Q: ALQDQLVLV was tested. Which peptide exchange yield did it give?
A: ≥ 75%

Q: NLIDLDDLYV was tested. Which peptide exchange yield did it give?
A: ≥ 75%

Q: Which peptide exchange yield does the source give for WLIEDGKVVTV here?
A: ≥ 75%

Q: How did the peptide exchange yield turn out when GLSNLGIKSI was run?
A: ≥ 75%

Q: KIQEILTQV was tested. Which peptide exchange yield did it give?
A: ≥ 75%

Q: How did the peptide exchange yield turn out when ALLELDEPLVL was run?
A: ≥ 75%

Q: Which peptide exchange yield does the source give for KLLDTMVDTFL here?
A: ≥ 75%

Q: With LLLDKLILL as the binder, how does the peptide exchange yield read?
A: ≥ 75%

Q: ILADLNLSV was tested. Which peptide exchange yield did it give?
A: ≥ 75%

Q: For RLIDLHTNV, which peptide exchange yield is on record?
A: ≥ 75%

Q: How did the peptide exchange yield turn out when LLFPHPVNQV was run?
A: ≥ 75%

Q: With KLLDEVTYLEA as the binder, how does the peptide exchange yield read?
A: ≥ 75%

Q: With TLGQIWDV as the binder, how does the peptide exchange yield read?
A: ≥ 75%

Q: Which peptide exchange yield does the source give for LIGEFLEKV here?
A: ≥ 75%

Q: With ALAEALKEV as the binder, how does the peptide exchange yield read?
A: ≥ 75%

Q: Which peptide exchange yield does the source give for RVIEHVEQV here?
A: ≥ 75%

Q: How did the peptide exchange yield turn out when VMQDPEFLQSV was run?
A: ≥ 75%

Q: Which peptide exchange yield does the source give for ALTSVVVTL here?
A: ≥ 75%

Q: Which peptide exchange yield does the source give for KLGAVFNQV here?
A: ≥ 75%

Q: For KLYQEVEIASV, which peptide exchange yield is on record?
A: ≥ 75%

Q: Which peptide exchange yield does the source give for ALLEADVNIKL here?
A: ≥ 75%

Q: How did the peptide exchange yield turn out when NLAEVVERV was run?
A: ≥ 75%

Q: For LLLGERVAL, which peptide exchange yield is on record?
A: ≥ 75%

Q: How did the peptide exchange yield turn out when KLSNVLQQV was run?
A: ≥ 75%

Q: How did the peptide exchange yield turn out when AMGEKSFSV was run?
A: ≥ 75%

Q: KIADFELPTI was tested. Which peptide exchange yield did it give?
A: ≥ 75%

Q: For KLFEEIREI, which peptide exchange yield is on record?
A: ≥ 75%

Q: Which peptide exchange yield does the source give for GLFAPLVFL here?
A: ≥ 75%

Q: RLFADILNDV was tested. Which peptide exchange yield did it give?
A: ≥ 75%

Q: With KLLDLETERILL as the binder, how does the peptide exchange yield read?
A: ≥ 75%

Q: With ILSPLSVAL as the binder, how does the peptide exchange yield read?
A: ≥ 75%

Q: ALQDAIRQL was tested. Which peptide exchange yield did it give?
A: ≥ 75%

Q: How did the peptide exchange yield turn out when ALNAVRLLV was run?
A: ≥ 75%

Q: ALLGKLDAI was tested. Which peptide exchange yield did it give?
A: ≥ 75%
